Drawing on article PMC12900691 (2025), this text covers Kd for one molecule.

The target in one assay is CHD4 ABM (Homo sapiens, UniProt Q14839). Kind of assay: ITC. Background: In ITC the heat of successive injections is recorded.
In assay [1] the target is T1, histone H3K9me3 peptide H3K9me3 peptide (Homo sapiens, UniProt P68431, K9me3).
T1 chain: ARTKQTARKSTGGKA
Put plainly: ITC.

CHD4 ABM, sequence (Q14839 100-140): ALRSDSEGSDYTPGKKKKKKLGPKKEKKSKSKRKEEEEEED

B1: ATRX ADD (protein)
chain: NLKKRGEDGLHGIVSCTACGQQVNHFQKDSIYRHPSLQVLICKNCFKYYMSDDISRDSDGMDEQCRWCAEGGNLICCDFCHNAFCKKCILRNLGRKELSTIMDENNQWYCYICHPEPLLDLVTACNSVFENLEQLLQQNKKKIK
One may read the Kd as the constant that tells how readily two partners part at equilibrium. Higher therefore signals weaker binding. Take B1: the Kd in the assay with CHD4 ABM was ~46 µM; in assay [1] it was ~4 µM.
